As a reminder, the Kd is the free concentration of one partner at which half of the binding sites on the other are occupied at equilibrium, for simple one-to-one binding.

Changes are numbered by the printed parent chain.

Here are results for 16 molecules from patent US20250313612A1 (Adimab, published 2025).

B1: ADI-14485 (antibody, V domains shown)
VH: EVQLVESGAEVKRPGSSVKVSCKVVGGSFSNYAISWVRQAPGQGPEYLGGIIPAFRTAKYAKKFQDRLTITADESTSTAYMEMRGLTSDDTGLYYCARPEGDFGDLKWLRSPFDYWGQGTLVTVSS
VL: EIVLTQSPATLSVSPGQRVTLSCRASQGVSINLAWYQQKPGQPPRLLIYGASTRATDIPARFSGSGSGTDFTLTISSLQSEDFAVYYCQQYDDWPPQLTFGPGTKLEIK
notes: full-length IgG (yeast-expressed); also called Antibody Number 46; Ab# 46
B2: ADI-14548 (antibody, V domains shown)
VH: EVQLVESGGGLVQPGGSLRLSCAASGFSFSTSWMSWVRQAPGKGLEWLANIKEDGSKKIYVDSVKGRFSISRDNAKNSLYLQMTSLRAEDTAVYYCARDVWGWELVGWLDPWGQGTLVTVSS
VL: SYELTQPPSVSVAPGKTASITCGGSNIGSRSVHWYQQKPGQAPVLVVYEDHDRPSGIPERFSGSNSGNTATLTISRVEAGDEADYYCQVWDSSRDHVVFGGGTKVTVL
B3: ADI-14533 (antibody, V domains shown)
VH: QVQLVQSGAEVKKPGSSVIISCKASGGTFRNYGFTWVRQAPGQGLEWLGGIIPMFETVRYAQKFQGRVTITADENTNTAFLAVSSLRSEDTGVYFCARDLQTGIMSSVRSEYRGFMDPWGQGTLVTVSS
VL: QSVLTQPPSVSGAPRQRVTISCSGSSSNIGTNAVNWYQQLPGKSPKVLIYYDELVPSGVSDRFSGSRSGTSASLAISGLRSEDEAYYYCAAWDDSLNGWVFGGGTQLTVL
B4: ADI-14563 (antibody, V domains shown)
VH: QVQLVQSGGGLAQPGGSLRLSCAASGFIFSVYEMDWVRQAPGKGLEWLSYIDITGNSVTYADSVRGRFTISRDNARNSLYLQMDSLRVEDTAVYYCVRDSRGPTTQWLTGYFDFWGQGTTVTVSS
VL: DIRMTQSPATLSLSPGERATLSCRASQSVSNYLAWYQQKPGQAPRLLIYDVSNRATGIPARFSGSGSGTDFTLTISSLEPEDFAVYYCQQRRNWPPLTFGGGTKVEVK
B5: ADI-14541 (antibody, V domains shown)
VH: EVQLVESGGGLVRPGGSLRLSCAASGFAFSSYSLHWVRQAPGRGLEWVASISAGSSFTDYAASVRGRFTISRNIANSLYLQMNRLRAEDTAVYYCARVIGDGTILGVVF
VL: QSVLTQPPSVSGAPGQRVTISCTGGRSNIGAGYDVHWYQQLPGTAPKLLIYGNINRPSGVPDRFSGSKSGTSASLAITGLLAEDEADYYCQSYDSSLSVIFGGGTKLTVL
B6: ADI-14542 (antibody, V domains shown)
VH: QVQLVQSGAEVKKPGESLKISCKGSGYVFSSYWVAWVRQMPGKGLEWMGIIYPHDSDTRYSPAFQGQVTISADKSINTAYLQWSSLKASDTAMYYCTIILIPAPIRAPDGFDIWGQGTTVTVSS
VL: NFMLTQPHSVSESPGKTVTISCTGSGGTIASNYVQWYQQRPGSVPTTVIYENNERPSGVPDRFSGSIDRSSNSASLTISGLKTEDEADYYCQSYDSSYHVVFGGGTKVTVL
B7: ADI-14545 (antibody, V domains shown)
VH: EVQLVESGGGLVKPGGSLRLSCAASGFTFSNAWMSWVRQAPGKGLEWVGRVKSKSKGGTTHYAEAVKGRFTISRDDSKNTLYLQMQSLKTEDTAVYYCTSHAYNSDWFVTTDYYYYMDVWGKGTTVTVSS
VL: DIVLTQSPSSLSASVGDRVTFTCRASQSISNYLNWYQQKPGKAPKVLIYGASNLLSGVPSRFIGSGSGTDFTLTINSLQPEDFATYYCQQCYSAPITFGQGTRLEIK
B8: ADI-14557 (antibody, V domains shown)
VH: QVQLQQWGAGLLKPSETLSLTCQVYGVSFSDYYWNWIRQSPGKGLEWIGDVNHIGNTDYNPSLKSRVSISVDTSKNQFSLTLRSVTAADTALYYCARGRKLFEVPPKAPDYWGQGTLVTVSS
VL: DIVMTQSPGTLSLSPGERATLSCRASQSVSSTYLAWYQQKPGQAPRLLIYGASIRATGIPDRFSGVGSGTDFTLTISRLEPEDVAVYYCQQYGSSPQTFGQGTKVEIK
B9: ADI-14540 (antibody, V domains shown)
VH: QVQLVESGGGVVQPGRSLRLSCAASGFTFTDYAMHWVRQAPGKGLQWVALISYNGRIQYYADSVKGRFTISRDDSKNTLYLQMNSLRAGDTAVYYCARDGDLVAVPAAIGFDSWGQGTLVTVSS
VL: DIQVTQSPDSLAVSLGERATINCKSSQSVLYTSNNKNYLAWYQQKSRQPPKLLIYWASTRESGVPERFSGSGSGTDFTLTISSLQAEDVAVYYCQQYSSPPYTFGQGTKVEIK
B10: ADI-14550 (antibody, V domains shown)
VH: QVQLVQSGGGVVQPGRSLRLSCAASGFTFSDYAMHWVRQAPGKGLQWVSLISYNGRKKYYADSVKGRFTISRDDSKNTLYLQMNPLRPDDTAVYYCARDGDIVAVPAAIGLDYWGQGTLVTVSS
VL: B9 VL with Q3V, V4L, D9E, K24N, R47G, V110L
B11: ADI-14562 (antibody, V domains shown)
VH: EVQLVESGPEVKGPGSSVKVSCEASAATFSNYAISWVRQAPGQGLEWMGGFVPMLGTRNYAQKFKGRVTLTADVSTHTLYLEIGSLRFEDTAVYYCATVAGLGTSYGRYLESWGQGTLVTVSS
VL: DIRMTQSPSSVSASLGDRVTITCRASQDISTALAWYQQIPGKAPKLLIYEASSLQSGVPSRFRGSGSETDFALTISSLQPEDFATYYCQQAKSFPYTFGQGTKVEIK
B12: ADI-14543 (antibody, V domains shown)
VH: QVQLVQSGAEVKKPGSSVKVSCKASGDTFSSYAISWVRQAPGQGLEWMGGVLPMLGTANYAQRFRGRVTLTADGSTNTAYMEMSSLRLDDTAVYYCARVAGLGNSYGRYPDLWGQGTLVTVSS
VL: DIVMTQSPSSLSASVGDRVTITCRASQGISSSLAWYQQKPGKAPELLIYAASSLHSGVPSRFRGSGSGTDFTLTISSVQPEDFATYYCQQANSFPYTFGQGTKLEIK
B13: ADI-14555 (antibody, V domains shown)
VH: QVQLVQSGGGLVQPGGSLRLSCAASGLTFSSYAMSWVRQAPGKELEWVSSISESGVDTYYADSVKGRFTVSRDNSKSTLYLQMSSLGGDDTAVYYCAKAYCSNKACHGGYFDYWGQGTLVTVSS
VL: ETTLTQSPDTLSLSPGERATLSCRASQSVRNYLAWYRQKPGQAPRLLIYDASNLATGIPARFSGSGSGTDFTLTISSLEPEDFAVYYCHQRSDWPLTFGPGTKVEIK
B14: ADI-14558 (antibody, V domains shown)
VH: QVQLVESGGGLIQPGASLRLSCGAYGFSFSSSAMSWVRQAPGKGLEWVSAISDNGGSTYYADSVQGRFTISRDNSKNTLYLQLNRLRAEDTAIYYCAKAYCSDSCHGGYFDYWGQGTLVTVSS
VL: EIVLTQSPATLSLSPGDRATLSCRASQSVSSSFAWYQQKPGQAPRLLIYAVSNRATGIPARFSGSGSGTDFTLTISTLEPEDFAVYYCQQRSTWPLTFGPGTKVEIK
B15: ADI-14544 (antibody, V domains shown)
VH: QVQLVQSGAEVKKPGESLKISCKGAGFGSTNSWIGWVRQMPGKGLEWMGVIFPGDSDTKYSPTFQGQVTISVDKSINTAYLQWSSLKASDTAIYYCARMLASVGLSNFDAWGQGTLVTVSS
VL: QPVLTQPPSVSLAPGKTATITCGGNNIGGKSVHWYQQKPGQAPVLVIDYDSDRPSGIPERFSGSNSGNTATLTINRVEAGDEADYYCQVWDSISDHVLFGGGTKLTVL
B16: ADI-14556 (antibody, V domains shown)
VH: EVQLVESGGGLVQPGGSLRLSCAASGFTFRSYWMTWVRQAPGKGLEWVASINDEGNTKYYVDSLKGRFTISRDNAKNSLYLQMNSLRAEDTAVYYCARESGLPRGAFQIWGPGTMVTVSS
VL: EIVLTQSPVTLSLSPGERATLSCRASQSVGTFLAWYQHKPGQAPRLLIYDASNRASAIPARFSGSGSGTDFTLTISSLEPEDFAVYYCQHRSDWWTFGQGTKVEIK

One experiment addresses T1, RSV F ectodomain stabilized in the postfusion conformation (F ΔFP), subtype A (Respiratory syncytial virus subtype A, UniProt P03420 26-109; P03420 147-524).
T1 construct: extracellular domain; trimer; furin-cleaved; also called Postfusion subtype A
The experiment is described as follows: BLI, IgG on AHQ sensor, 100 nM antigen. A general note: In BLI a coated tip is dipped into the sample, and binding shifts an interference pattern.
B1 had a Kd of 1.52 nM.

For the next experiment, the target named is T2, RSV F ectodomain stabilized in the postfusion conformation (F ΔFP), subtype B (Respiratory syncytial virus subtype B, UniProt P13843 26-109; P13843 147-524).
T2 construct: extracellular domain; trimer; also called Postfusion subtype B; postF subtype B
The experiment is described as follows: BLI, IgG on AHQ sensor, 100 nM antigen.
With B1, the Kd amounted to 0.642 nM.

In another experiment the target is RSV F protein of subtype A (strain A2) on recombinant mKate-RSV (Respiratory syncytial virus subtype A …, UniProt P03420 26-574). The experiment in a line: cell-based or functional assay.
Consider B2, for which the “Neut IC50 (µg/ml) subtype A” value worked out at 0.034 µg/mL.

As to B3, the “Neut IC50 (µg/ml) subtype A” value is over 10 µg/mL.

In the case of B4, the “Neut IC50 (µg/ml) subtype A” value was over 10 µg/mL.

Turning to B5, the “Neut IC50 (µg/ml) subtype A” value stood at 0.023 µg/mL.

As to B6, the “Neut IC50 (µg/ml) subtype A” value was determined as 0.008 µg/mL.

For B7, the “Neut IC50 (µg/ml) subtype A” value stood at 0.036 µg/mL.

As for B8, the “Neut IC50 (µg/ml) subtype A” value is over 10 µg/mL.

In the case of B9, the “Neut IC50 (µg/ml) subtype A” value was over 10 µg/mL.

In the case of B10, the “Neut IC50 (µg/ml) subtype A” value was determined as 2.62 µg/mL.

Take B11: the “Neut IC50 (µg/ml) subtype A” value is over 10 µg/mL.

On to B12, for which the “Neut IC50 (µg/ml) subtype A” value was over 10 µg/mL.

B13: the “Neut IC50 (µg/ml) subtype A” value was over 10 µg/mL.

As for B14, the “Neut IC50 (µg/ml) subtype A” value is over 10 µg/mL.

For the molecule B15, the “Neut IC50 (µg/ml) subtype A” value is over 10 µg/mL.

Consider B16, for which the “Neut IC50 (µg/ml) subtype A” value was over 10 µg/mL.

For the next experiment, the target named is RSV F protein of recombinant mKate-RSV, subtype B (18537) (Respiratory syncytial virus subtype B …, UniProt P13843 26-574). The experiment in a line: cell-based or functional assay.
For the molecule B1, the “Neut IC50 subtype B” value was 2.81 µg/mL.

The target of a further experiment is RSV F protein of recombinant mKate-RSV, subtype A (strain A2) (Respiratory syncytial virus subtype A …, UniProt P03420 26-574). The experiment in a line: cell-based or functional assay.
As for B1, the “Neut IC50 subtype A” value is over 10 µg/mL.

The next experiment deals with RSV F protein of subtype B (18537) on recombinant mKate-RSV (Respiratory syncytial virus subtype B …, UniProt P13843 26-574). The experiment in a line: cell-based or functional assay.
Turning to B2, the “Neut IC50 (µg/ml) subtype B” value came to 0.094 µg/mL.

For the molecule B3, the “Neut IC50 (µg/ml) subtype B” value stood at 0.442 µg/mL.

With B4, the “Neut IC50 (µg/ml) subtype B” value is over 10 µg/mL.

With B5, the “Neut IC50 (µg/ml) subtype B” value was 0.106 µg/mL.

Regarding B6, the “Neut IC50 (µg/ml) subtype B” value is 4.3 µg/mL.

For B7, the “Neut IC50 (µg/ml) subtype B” value is 0.073 µg/mL.

Turning to B8, the “Neut IC50 (µg/ml) subtype B” value was over 10 µg/mL.

For the molecule B9, the “Neut IC50 (µg/ml) subtype B” value was over 10 µg/mL.

As to B10, the “Neut IC50 (µg/ml) subtype B” value was over 10 µg/mL.

As to B11, the “Neut IC50 (µg/ml) subtype B” value was determined as 10.5 µg/mL.

As for B12, the “Neut IC50 (µg/ml) subtype B” value was over 10 µg/mL.

On to B13, for which the “Neut IC50 (µg/ml) subtype B” value was over 10 µg/mL.

With B14, the “Neut IC50 (µg/ml) subtype B” value is over 10 µg/mL.

As for B15, the “Neut IC50 (µg/ml) subtype B” value was over 10 µg/mL.

Turning to B16, the “Neut IC50 (µg/ml) subtype B” value was over 10 µg/mL.
